Reference: IntAct's records for PubMed 29858488

B1: Oxysterol-binding protein-related protein 1 (Homo sapiens), Q9BXW6 (parent)
chain: MNTEAEQQLLHHARNGNAEEVRQLLETMARNEVIADINCKGRSKSNLGWTPLHLACYFGHRQVVQDLLKAGAEVNVLNDMGDTPLHRAAFTGRKELVMLLLEYNADTTIVNGSGQTAKEVTHAEEIRSMLEAVERTQQRKLEELLLAAAREGKTTELTALLNRPNPPDVNCSDQLGNTPLHCAAYRAHKQCALKLLRSGADPNLKNKNDQKPLDLAQGAEMKHILVGNKVIYKALKRYEGPLWKSSRFFGWRLFWVVLEHGVLSWYRKQPDAVHNIYRQGCKHLTQAVCTVKSTDSCLFFIKCFDDTIHGFRVPKNSLQQSREDWLEAIEEHSAYSTHYCSQDQLTDEEEEDTVSAADLKKSLEKAQSCQQRLDREISNFLKMIKECDMAKEMLPSFLQKVEVVSEASRETCVALTDCLNLFTKQEGVRNFKLEQEQEKNKILSEALETLATEHHELEQSLVKGSPPASILSEDEFYDALSDSESERSLSRLEAVTARSFEEEGEHLGSRKHRMSEEKDCGGGDALSNGIKKHRTSLPSPMFSRNDFSIWSILRKCIGMELSKITMPVIFNEPLSFLQRLTEYMEHTYLIHKASSLSDPVERMQCVAAFAVSAVASQWERTGKPFNPLLGETYELVRDDLGFRLISEQVSHHPPISAFHAEGLNNDFIFHGSIYPKLKFWGKSVEAEPKGTITLELLEHNEAYTWTNPTCCVHNIIVGKLWIEQYGNVEIINHKTGDKCVLNFKPCGLFGKELHKVEGYIQDKSKKKLCALYGKWTECLYSVDPATFDAYKKNDKKNTEEKKNSKQMSTSEELDEMPVPDSESVFIIPGSVLLWRIAPRPPNSAQMYNFTSFAMVLNEVDKDMESVIPKTDCRLRPDIRAMENGEIDQASEEKKRLEEKQRAARKNRSKSEEDWKTRWFHQGPNPYNGAQDWIYSGSYWDRNYFNLPDIY
partner: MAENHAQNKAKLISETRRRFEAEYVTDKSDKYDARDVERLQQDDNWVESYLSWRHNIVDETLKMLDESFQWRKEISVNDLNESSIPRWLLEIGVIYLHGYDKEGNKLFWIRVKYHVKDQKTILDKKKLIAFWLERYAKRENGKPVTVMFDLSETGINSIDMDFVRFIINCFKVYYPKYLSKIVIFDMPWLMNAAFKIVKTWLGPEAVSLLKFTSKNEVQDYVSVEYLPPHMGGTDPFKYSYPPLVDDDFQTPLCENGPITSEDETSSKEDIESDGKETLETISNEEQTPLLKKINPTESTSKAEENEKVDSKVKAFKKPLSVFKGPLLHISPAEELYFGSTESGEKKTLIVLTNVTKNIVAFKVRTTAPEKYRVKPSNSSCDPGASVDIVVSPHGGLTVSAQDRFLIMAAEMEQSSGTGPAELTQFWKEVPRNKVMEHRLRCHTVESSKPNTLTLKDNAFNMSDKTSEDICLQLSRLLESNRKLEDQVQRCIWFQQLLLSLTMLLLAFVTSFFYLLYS
B2: STARD3 N-terminal-like protein (Homo sapiens), O95772 (parent)
chain: MNHLPEDMENALTGSQSSHASLRNIHSINPTQLMARIESYEGREKKGISDVRRTFCLFVTFDLLFVTLLWIIELNVNGGIENTLEKEVMQYDYYSSYFDIFLLAVFRFKVLILAYAVCRLRHWWAIALTTAVTSAFLLAKVILSKLFSQGAFGYVLPIISFILAWIETWFLDFKVLPQEAEEENRLLIVQDASERAALIPGGLSDGQFYSPPESEAGSEEAEEKQDSEKPLLEL
partner: B1 partner
B3: Motile sperm domain-containing protein 2 (Homo sapiens), Q8NHP6 (parent)
chain: B1 partner
partner: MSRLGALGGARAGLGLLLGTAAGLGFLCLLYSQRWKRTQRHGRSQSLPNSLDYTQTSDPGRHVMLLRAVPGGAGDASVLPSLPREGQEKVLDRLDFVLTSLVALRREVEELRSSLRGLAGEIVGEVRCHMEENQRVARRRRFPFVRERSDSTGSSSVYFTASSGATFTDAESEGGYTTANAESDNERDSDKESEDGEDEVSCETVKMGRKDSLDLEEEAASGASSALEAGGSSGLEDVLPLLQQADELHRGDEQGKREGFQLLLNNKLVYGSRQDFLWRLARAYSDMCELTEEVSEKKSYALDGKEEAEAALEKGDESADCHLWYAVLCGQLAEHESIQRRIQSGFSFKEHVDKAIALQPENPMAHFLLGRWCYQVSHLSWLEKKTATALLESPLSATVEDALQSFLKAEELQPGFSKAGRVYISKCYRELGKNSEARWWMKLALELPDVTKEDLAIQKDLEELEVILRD
B4: Motile sperm domain-containing protein 2 (Homo sapiens), Q8NHP6 (parent)
chain: B1 partner
partner: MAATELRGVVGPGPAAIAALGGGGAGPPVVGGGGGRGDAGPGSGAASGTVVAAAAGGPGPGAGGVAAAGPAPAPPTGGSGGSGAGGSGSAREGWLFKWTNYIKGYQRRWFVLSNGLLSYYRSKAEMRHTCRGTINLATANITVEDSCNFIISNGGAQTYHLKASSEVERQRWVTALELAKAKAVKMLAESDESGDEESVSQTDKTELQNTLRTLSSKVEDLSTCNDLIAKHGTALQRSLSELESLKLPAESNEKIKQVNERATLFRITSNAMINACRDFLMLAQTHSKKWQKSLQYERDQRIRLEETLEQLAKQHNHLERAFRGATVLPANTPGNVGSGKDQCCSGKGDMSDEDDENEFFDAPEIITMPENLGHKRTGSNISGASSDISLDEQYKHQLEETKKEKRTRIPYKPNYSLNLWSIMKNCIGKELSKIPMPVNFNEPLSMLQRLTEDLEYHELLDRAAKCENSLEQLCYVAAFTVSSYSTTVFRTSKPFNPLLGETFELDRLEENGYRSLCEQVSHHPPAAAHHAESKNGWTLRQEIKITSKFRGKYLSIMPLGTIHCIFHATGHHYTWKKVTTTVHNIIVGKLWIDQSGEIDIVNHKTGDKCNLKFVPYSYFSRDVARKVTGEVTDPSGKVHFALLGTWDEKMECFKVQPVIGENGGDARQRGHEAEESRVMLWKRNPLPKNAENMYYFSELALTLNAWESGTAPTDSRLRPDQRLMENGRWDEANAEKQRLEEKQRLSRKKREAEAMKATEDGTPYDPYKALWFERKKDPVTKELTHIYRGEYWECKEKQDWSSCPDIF
B5: Vesicle-associated membrane protein-associated protein A (Homo sapiens), Q9P0L0 (parent)
chain: MASASGAMAKHEQILVLDPPTDLKFKGPFTDVVTTNLKLRNPSDRKVCFKVKTTAPRRYCVRPNSGIIDPGSTVTVSVMLQPFDYDPNEKSKHKFMVQTIFAPPNTSDMEAVWKEAKPDELMDSKLRCVFEMPNENDKLNDMEPSKAVPLNASKQDGPMPKPHSVSLNDTETRKLMEECKRLQGEMMKLSEENRHLRDEGLRLRKVAHSDKPGSTSTASFRDNVTSPLPSLLVVIAAIFIGFFLGKFIL
partner: B1 chain
B6: Motile sperm domain-containing protein 2 (Homo sapiens), Q8NHP6 (parent)
chain: B1 partner
partner: B1 chain
B7: Motile sperm domain-containing protein 2 (Homo sapiens), Q8NHP6 (parent)
chain: B1 partner
partner: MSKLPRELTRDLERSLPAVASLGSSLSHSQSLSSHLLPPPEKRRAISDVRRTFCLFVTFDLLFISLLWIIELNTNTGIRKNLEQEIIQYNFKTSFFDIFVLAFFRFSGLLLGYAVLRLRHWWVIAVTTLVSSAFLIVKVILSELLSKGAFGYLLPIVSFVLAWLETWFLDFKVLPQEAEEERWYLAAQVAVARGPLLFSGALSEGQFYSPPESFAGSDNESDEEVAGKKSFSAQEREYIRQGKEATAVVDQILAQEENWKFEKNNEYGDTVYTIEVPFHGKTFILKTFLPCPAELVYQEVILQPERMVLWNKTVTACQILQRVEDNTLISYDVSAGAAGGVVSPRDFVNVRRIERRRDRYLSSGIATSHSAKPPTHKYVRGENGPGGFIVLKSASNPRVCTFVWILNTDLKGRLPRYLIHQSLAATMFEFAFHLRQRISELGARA
B8: StAR-related lipid transfer protein 3 (Homo sapiens), Q14849 (parent)
chain: B7 partner
partner: B1 partner
B9: Motile sperm domain-containing protein 2 (Homo sapiens), Q8NHP6 (parent)
chain: B1 partner
partner: B2 chain
B10: Motile sperm domain-containing protein 2 (Homo sapiens), Q8NHP6 (parent)
chain: B1 partner
partner: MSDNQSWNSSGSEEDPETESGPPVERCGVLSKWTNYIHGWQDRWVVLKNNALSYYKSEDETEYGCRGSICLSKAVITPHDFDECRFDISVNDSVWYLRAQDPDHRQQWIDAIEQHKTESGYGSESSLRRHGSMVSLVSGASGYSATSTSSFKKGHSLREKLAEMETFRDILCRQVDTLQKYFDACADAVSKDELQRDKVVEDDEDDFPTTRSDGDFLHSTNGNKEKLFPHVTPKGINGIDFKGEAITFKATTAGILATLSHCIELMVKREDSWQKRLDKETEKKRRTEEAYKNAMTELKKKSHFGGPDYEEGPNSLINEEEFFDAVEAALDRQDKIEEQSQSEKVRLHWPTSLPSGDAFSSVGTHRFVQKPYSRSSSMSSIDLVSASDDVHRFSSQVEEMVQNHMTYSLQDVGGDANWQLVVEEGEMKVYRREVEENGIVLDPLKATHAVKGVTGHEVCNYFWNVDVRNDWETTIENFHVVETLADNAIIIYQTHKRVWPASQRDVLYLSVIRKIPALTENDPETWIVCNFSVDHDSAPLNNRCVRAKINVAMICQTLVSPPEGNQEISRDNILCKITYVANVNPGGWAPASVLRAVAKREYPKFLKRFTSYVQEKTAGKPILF
B11: Ceramide transfer protein (Homo sapiens), Q9Y5P4 (parent)
chain: B10 partner
partner: B1 partner

Variants of: B1
Conditions: with mspd2_human MOSPD2, Q8NHP6

Row | effect of a mutation on the interaction | Variant
1 | disrupting interaction strength | F476A;Y477A

Variants of: B2
Conditions: with mspd2_human MOSPD2, Q8NHP6

Row | effect of a mutation on the interaction | Variant
2 | disrupting interaction strength | F208A;Y209A

Variants of: B3
Conditions: with rmd3_human RMDN3, Q96TC7

Row | effect of a mutation on the interaction | Variant
3 | disrupting interaction strength | R404D;L406D

Variants of: B4
Conditions: with osbp1_human OSBP

Row | effect of a mutation on the interaction | Variant
4 | disrupting interaction strength | R404D;L406D

Variants of: B5
Conditions: with osbl1_human OSBPL1A

Row | effect of a mutation on the interaction | Variant
5 | disrupting interaction strength | K94D;M96D

Variants of: B6
Conditions: with osbl1_human OSBPL1A

Row | effect of a mutation on the interaction | Variant
6 | disrupting interaction strength | R404D;L406D

Variants of: B7
Conditions: with star3_human STARD3, Q14849

Row | effect of a mutation on the interaction | Variant
7 | disrupting interaction strength | R404D;L406D

Variants of: B8
Conditions: with mspd2_human MOSPD2, Q8NHP6

Row | effect of a mutation on the interaction | Variant
8 | disrupting interaction strength | F207A;Y208A

Variants of: B9
Conditions: with str3n_human STARD3NL

Row | effect of a mutation on the interaction | Variant
9 | disrupting interaction strength | R404D;L406D

Variants of: B10
Conditions: with cert_human CERT1, Q9Y5P4

Row | effect of a mutation on the interaction | Variant
10 | disrupting interaction strength | R404D;L406D

Variants of: B11
Conditions: with mspd2_human MOSPD2, Q8NHP6

Row | effect of a mutation on the interaction | Variant
11 | disrupting interaction strength | D324A
